Experimental data: patent publication US20210147573A1 (DENALI THERAPEUTICS, published 2021)

Assays:
[1] = biological target: HA-Rab10 (N-terminal HA-tagged Rab10 overexpressed in HEK293T cells; not phosphorylated / LRRK2 inhibitor A-treated lysate) (UniProt P61026)
[2] = biological target: mouse Rab10 (endogenous, brain and kidney) (UniProt P61027)
[3] = biological target: mouse Rab10 (endogenous, brain and kidney) (mouse) (UniProt P61027); experiment: cell-based or functional assay
[4] = biological target: T1, HA-Rab8a phosphorylated at T72 (overexpressed with LRRK2 in HEK293T cells, DMSO-treated lysate) (UniProt P61006 1-204, phosphothreonine at Thr72 (numbered with reference to SEQ ID NO:124)); experiment: sandwich ELISA screening assay; OD ratio of DMSO lysate to LRRK2 inhibitor A lysate
T1 construct: mature; In cell lysate of HEK293T co-transfected with FLAG-LRRK2 or FLAG-LRRK2-R1441C; also called pT72-Rab8a; phospho-Rab8a; not shown: N-terminal HA (hemagglutinin) tag
T1 sequence (looked up): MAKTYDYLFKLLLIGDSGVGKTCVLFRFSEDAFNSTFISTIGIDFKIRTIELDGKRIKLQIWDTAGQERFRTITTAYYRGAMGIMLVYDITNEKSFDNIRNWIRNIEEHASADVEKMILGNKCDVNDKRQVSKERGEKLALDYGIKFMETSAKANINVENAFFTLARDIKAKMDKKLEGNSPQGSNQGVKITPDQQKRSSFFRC
Experimental: (§1) 96-well ELISA plates were coated with 10 μg/ml anti-rabbit IgG (Millipore) overnight at 4° C. Plates were washed with TBST (Tris Buffered Saline with Tween 20), and blocked with 2% BSA. Hybridoma supernatants were added in different dilutions, and incubated at room temperature for 2 hours. After TBST wash, cell lysates were then added at different protein concentration (0.08 mg/ml or 0.8 mg/ml). […] HRP conjugated anti-HA antibody (1:5000, CST #2999) was used for detection. TMB substrate was added and developed. Absorbance (OD) was measured at 650 nm using a plate reader.

[5] = biological target: T2, HA-Rab8a (N-terminal HA-tagged full-length Rab8a overexpressed in HEK293T cells); not phosphorylated / LRRK2 … (UniProt P61006 1-204)
T2 construct: mature; also called overexpressed Rab8a protein; not shown: N-terminal HA (hemagglutinin) tag
T2 sequence (looked up): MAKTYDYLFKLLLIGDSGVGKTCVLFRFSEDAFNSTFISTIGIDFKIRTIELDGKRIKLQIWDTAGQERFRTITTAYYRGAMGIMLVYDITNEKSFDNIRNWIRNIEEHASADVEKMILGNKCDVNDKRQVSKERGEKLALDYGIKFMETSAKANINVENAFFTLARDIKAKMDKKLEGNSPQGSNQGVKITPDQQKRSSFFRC
Experimental: as §1

[6] = biological target: T3, endogenously expressed human Rab10 protein (total Rab10, A549 cell lysates) (human, UniProt P61026 1-200); experiment: sandwich ELISA with lysates of wild-type A549 cells, Rab10 KO A549 lysates as negative controls
T3 construct: A549 is stated to be a human lung epithelial cell line
T3 sequence: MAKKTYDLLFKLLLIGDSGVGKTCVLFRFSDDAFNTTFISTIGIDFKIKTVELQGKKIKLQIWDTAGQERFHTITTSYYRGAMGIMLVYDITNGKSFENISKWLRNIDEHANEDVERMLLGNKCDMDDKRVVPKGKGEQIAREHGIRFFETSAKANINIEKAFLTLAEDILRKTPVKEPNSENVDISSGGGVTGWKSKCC

[7] = biological target: T4, HA-Rab10 (N-terminal HA-tagged Rab10 overexpressed in HEK293T cells); not phosphorylated / LRRK2 inhibitor … (UniProt P61026 1-200); experiment: sandwich ELISA with cell lysates; same screening and selection strategy used for subclone supernatants
T4 construct: mature; also called overexpressed Rab10 protein; not shown: N-terminal HA (hemagglutinin) tag
T4 sequence (looked up): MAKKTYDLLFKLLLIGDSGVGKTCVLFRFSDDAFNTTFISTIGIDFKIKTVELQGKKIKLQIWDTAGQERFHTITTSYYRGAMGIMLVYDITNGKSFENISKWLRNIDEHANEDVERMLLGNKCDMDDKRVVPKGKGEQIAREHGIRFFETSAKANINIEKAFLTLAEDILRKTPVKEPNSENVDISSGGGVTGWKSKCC

[8] = biological target: T5, recombinant Rab10 protein (Abnova, H00010890-P01) (UniProt P61026 1-200); experiment: sandwich ELISA with recombinant Rab proteins; same screening and selection strategy used for subclone supernatants
T5 construct: Bought
T5 sequence (looked up): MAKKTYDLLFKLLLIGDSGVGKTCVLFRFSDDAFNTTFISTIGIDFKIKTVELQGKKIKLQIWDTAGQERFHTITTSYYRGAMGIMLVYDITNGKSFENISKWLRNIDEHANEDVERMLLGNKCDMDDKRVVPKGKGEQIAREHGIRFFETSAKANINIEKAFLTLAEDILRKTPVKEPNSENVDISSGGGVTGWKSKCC

[9] = biological target: endogenous phosphorylated human Rab8a protein (pT72-Rab8a) (human) (UniProt P61006); experiment: western blot, human PBMC; band intensity normalized to actin; mean ± SEM
[10] = biological target: T1, HA-Rab8a phosphorylated at T72 …

LRRK2 variant Y1699C
phosphorylation of Rab10 (pT73-Rab10 western blot signal normalized to total Rab10, against wild-type LRRK2) [1]: demonstrated significantly increased phosphorylation levels of Rab10

LRRK2 variant G2385R
phosphorylation of Rab10 (pT73-Rab10 western blot signal normalized to total Rab10, against wild-type LRRK2) [1]: demonstrated significantly increased phosphorylation levels of Rab10

LRRK2 variant G2019S (HEK293T expression)
phosphorylation of Rab10 (pT73-Rab10 western blot signal normalized to total Rab10, against wild-type LRRK2) [1]: demonstrated significantly increased phosphorylation levels of Rab10

mouse LRRK2 (endogenous; absent in LRRK2 knockout mice, Jackson Lab #016121)
reduction of pRab10 level in LRRK2 KO mouse kidney (western blot, normalized to actin) [2]: more than 90% reduction of pRab10 level
reduction of pT73-Rab10 level in LRRK2 KO mouse brain (western blot, normalized to actin) [2]: 30-40% reduction for pT73-Rab10 level

G2019S-LRRK2 (BAC transgene in G2019S-Tg mice, Jackson Laboratories #018785)
increase in pT73-Rab10 level in brain and kidney of G2019S transgenic mice (western blot, normalized to actin) [3]: 20 to 30%

LRRK2 variant I2020T
phosphorylation of Rab10 (pT73-Rab10 western blot signal normalized to total Rab10, against wild-type LRRK2) [1]: demonstrated significantly increased phosphorylation levels of Rab10

LRRK2 variant R1441G
phosphorylation of Rab10 (pT73-Rab10 western blot signal normalized to total Rab10, against wild-type LRRK2) [1]: demonstrated significantly increased phosphorylation levels of Rab10

B1: anti-pT72-Rab8a monoclonal antibody clone 170-1 (antibody, V domains shown)
VH: QSLEESGGDLVKPEGSPTLTCTASGFSFSSSYWICWVRQAPGKGLEWIACIYGGSSGTIYYASWAKGRFTISKTSSTTVTLQMTSLTAADTATYFCARRAAGGYGGRLDLWGQGTLVTVSS
VL: AQVMTQTPASVSAAVGGTVTINCQSSESVLNNNYLAWYQQKSGQPPKLLIWTASSLASGVPSRFSGSGSGTQFTLTISDVQCDDAATYYCAGGYYIGSDIFAFGGGTEVVVR
notes: Rabbit monoclonal; also called anti-phospho Rab8a clone 170-1
Ratio (DMSO/LRRK2 inhibitor A) [4]: 6.03
OD A650 (LRRK2 inhibitor A) [5]: 0.173 OD A650

B2: anti-pT72-Rab8a monoclonal antibody clone 24-3 (antibody, V domains shown)
VH: QSVEESGGRLVTPGTPLTLTCTVSGFSLSSYYITWVRQAPGKGREWLGIMNAGTTVHYANWVKGRFAISKTSTTVDLKITSPTTEDTATYFCARARNSVWMDIWGPGTLVTVSL
VL: AAVLTQTPSPVSGAVGGSVTVNCQSDKSVYRDNLAWYQQKPGQPPKLLIYKASTLASGVPSRFRGSGAGTQFTLTISDVQCDDAATYFCAGGYSSDSDTAFGGGTEVVVK
notes: Rabbit monoclonal; also called anti-phospho Rab8a clone 24-3
Ratio (DMSO/LRRK2 inhibitor A) [4]: 5.19
OD A650 (LRRK2 inhibitor A) [5]: 0.286 OD A650

B3: anti-total Rab10 monoclonal antibody Clone 10-3 (antibody, V domains shown)
VH: QSVEESGGRLVTPGTPLTLTCTASGFSLSSYYMNWVRQAPGKGLEWIGFISSGGRTYYANWAKGRFTISKTSTTVDLKITSPTTEDMATYFCARAIYSSGNSAMAIWGPGTLVTVSL
VL: AQVLTQTPSSVSAAVGGTVTISCQASQSVYDNSNLAWYQQKPGQPPELLIYYTSTLASGVPSRFSGSGSGTQFTLTISGVQCDDAAIYYCLGAFTCSSGDCNVFGGGTEVVVK
notes: Rabbit monoclonal from rabbit E8473 (Peptide A immunization); hybridoma supernatant; also called anti-total Rab10 clone 10-3
binding result [6]: binds
binding result [7]: binds
binding result [8]: binds

B4: anti-pT72-Rab8a monoclonal antibody clone 20 (antibody, V domains shown)
VH: QSVEESGGRLVTPGTPLTLTCTVSGFSLSSYAMGWVRQAPGEGLEYFGIINTGGSAYYTNWAKGRFTISRTSTTVHLKITSPTTEDTATYFCARIAGDTRYYGMDPWGPGTLVTVSS
VL: AAVLTQTPSPVSAAVGGTVSISCQSSKSVRNNNYLAWYQQKPGQPPKLLIYGASTLASGVPSRFKGSGSGTQFTLTISDVQCDDAATYYCAGGYDGGSDDAFGGGTEVVVK
notes: Rabbit monoclonal; also called anti-phospho Rab8a clone 20; anti-phosphorylated T72-Rab8a monoclonal antibody (clone 20)
Ratio of DMSO/LRRK2 inhibitor A [9]: 3.5
Ratio (DMSO/LRRK2 inhibitor A) [4]: 8.35
OD A650 (DMSO) [10]: 0.827 OD A650
OD A650 (LRRK2 inhibitor A) [5]: 0.099 OD A650
